How the values were obtained:
[1] = target: T1, recombinant human common γ chain (γc; CD132) (human, UniProt P31785 23-262); assay: SPR, recombinant receptor chain immobilised on the chip, antibody flowed over
T1 construct: Recombinant chain immobilised on the SPR chip and used as antigen in the ELISAs; also called IL-2Rγc; IL-2Rγ
T1 sequence (looked up): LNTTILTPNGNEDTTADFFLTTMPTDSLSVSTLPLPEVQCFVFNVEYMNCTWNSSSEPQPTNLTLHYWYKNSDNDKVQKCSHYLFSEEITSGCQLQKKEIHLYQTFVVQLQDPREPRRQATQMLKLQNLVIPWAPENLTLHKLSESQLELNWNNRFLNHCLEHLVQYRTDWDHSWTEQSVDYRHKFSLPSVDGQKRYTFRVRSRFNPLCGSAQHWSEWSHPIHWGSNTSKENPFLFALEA

[2] = target: T2, recombinant human interleukin 2 receptor β (IL-2Rβ; CD122) (human, UniProt P14784 27-240); assay: as above
T2 construct: Recombinant chain immobilised on the SPR chip and used as antigen in the ELISAs; also called human IL-2Rβ
T2 sequence (looked up): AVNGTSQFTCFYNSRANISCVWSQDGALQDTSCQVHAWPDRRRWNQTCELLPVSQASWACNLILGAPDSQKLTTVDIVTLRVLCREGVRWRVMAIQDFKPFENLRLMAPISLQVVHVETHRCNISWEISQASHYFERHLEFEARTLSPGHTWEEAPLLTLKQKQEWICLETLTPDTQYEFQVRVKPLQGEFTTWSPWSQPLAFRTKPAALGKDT

Kd [1]: 78.7 nM
Kd [2]: 181 nM
B1: bispecific anti-IL-2Rβ/γc antibody P2D12/P1A3 (bispecific antibody)
chain 1: HVQLVETGGGLVQPGGSLRLSCAASGFTFSSYAMSWVRQAPGKGLEWVSAISGSGGSTYYADSVKGRFTISRDNSKNTLYLQMNSLRAEDTAVYYCARDLGDYWGQGTLVTVSSGGGGSGGGGSGGGGSDIQLTQSPSSLSASVGDRVTITCQASQDIGNYLNWYQLKPGKAPKLLIYDASNLETGVPSRFSGSGSGTDFTFTISSLQPEDIATYYCLQLYDYPLTFGGGTKVEIK
chain 2: not shown

Reference: patent publication US20160367664A1 (AGENCY FOR SCIENCE TECHNOLOGY AND RESEARCH, published 2016)
